The text below walks through data of US20150147330A1.

By Kd is commonly meant the equilibrium constant for the complex coming apart.

For the assay, the target named is human glypican-3 (GPC3), cell-associated (human) (UniProt P51654). As to the kind of experiment: flow cytometry on cells expressing native GPC3, MFI titration, Scatchard plot (Prism). A general note: Flow cytometry measures light scatter and fluorescence of single cells or particles in a stream.

For YP7 (antibody), the dissociation constant Kd is 0.3 nM.
